The test system of assay [1] is CNA gamma C-terminal fragment. As to the kind of experiment: Yeast two-hybrid assays of R5G42 mutants. The format is binding, human. The conditions noted are these: plasmids pSH18-34, pJK103, pRB18-40. The method, then:
(§1) The capacity of R5G42 mutants having a one amino acid change as compared to R5G42 to bind CNA beta and gamma C-Terminal fragments (FIG. 3b) and NS5A-TP2 was tested in yeast two-hybrid assays. CNA beta and gamma C-Terminal fragments and NS5A-TP2 were cloned in three different vectors (pSH18-34, pJK103 and pRB18-40). These three plasmids differ from each other in the level of sensitivity of their promoter, pSH18-34 having the highest sensitivity and pRB18-40 having the lowest.
(§2) The inventors explored the ability of R5G42 mutants having a one amino acid change as compared to R5G42, to bind to CNA beta and gamma C-Terminal fragments (FIG. 3b) and to NS5A-TP2. To this end, they proceeded to yeast-two hybrid assays as in example 3. CNA beta and gamma C-Terminal fragments (FIG. 3b) and NS5A-TP2 were cloned in three different plasmids (pSH18-34, pJK103 and pRB18-40), which differed from each other in the level of sensitivity of their promoter to the bait/prey complex formation, pSH18-34 having the highest sensitivity and pRB18-40 having the lowest.

Assay [2] deals with Raw1 cells (osteoclasts precursors). As to the kind of experiment: Raw cell differentiation assay (osteoclast differentiation). Format: cell-based. The text has this:
Trx, CNA* and Peptide aptamers R5G42, C2, C7, C8 and N9 were transfected into RAW1 cells and left for four days in absence of the normal differentiation factor RANKL. CNA* is activated calcineurin A which elicits a robust differentiation response.
The inventors assessed the ability of some CNA-specific peptide aptamers to promote osteoclast differentiation via the activation of CNA. […] The differentiation state was then observed 4 days post-transfection.
Raw1 cells were transfected with the following plasmids: pCI-HA-Trx (negative control), pCI-HA CNA* (positive control for differentiation activation), pCI-HA R5G42, pCI-HA R5G42-C2, pCI-HA R5G42-C7, pCI-HA R5G42-C8 and pCI-HA R5G42-N9. The sequence of CNA* is the same as that of CNA8 (see FIG. 17, SEQ ID 42). The sequences of the R5G42 (SEQ ID 22), C2 (SEQ ID 23), C7 (SEQ ID 27), C8 (SEQ ID 28) and N9 (SEQ ID 33) aptamers is shown on FIG. 8.
One day before the transfection, Raw I cells were plated in 6-well dishes at 50 cell/mm^2. Transfection was performed with FuGene 6 Reagent (Roche) using 2 μg of each plasmid and following supplier recommendations.
8 h after transfection D-MEM was changed with α-MEM. In the control dishes α-MEM+50 ng/ml RANKL was added. After 2 days, medium was changed with a fresh medium. The differentiation state was then observed 4 days post-transfection.

Another assay deals with T1, NS5A-TP2 (Homo sapiens, UniProt Q7Z4H3).
T1 construct: expressed in transfected cells; host or cells: yeast
T1 sequence (Q7Z4H3 1-204): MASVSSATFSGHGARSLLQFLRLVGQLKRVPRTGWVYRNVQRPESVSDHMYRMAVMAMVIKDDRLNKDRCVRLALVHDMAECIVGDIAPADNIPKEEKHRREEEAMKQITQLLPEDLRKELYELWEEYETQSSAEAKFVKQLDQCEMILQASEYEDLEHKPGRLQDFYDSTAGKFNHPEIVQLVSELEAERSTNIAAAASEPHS
In words: Further yeast two-hybrid binding assays (higher sensitivity). An excerpt: FIG. 14. Specificity of aptamers according to the invention for CNA and NS5A-TP2 Interaction matrix between peptide aptamers R5G42, C2, C7, C8, N9, R5G44 and R5G52 with CNA constructs CNA1-CNA8 (A) CNA9-11 (B) and NS5A-TP2 (C). An interaction phenotype between CNA3/CNA 11, which both contain the Calmodulin binding domain (CaM) and the auto-inhibitory domain (Al) but not the CNB binding domain (CNB) and the aptamers R5G42, C2, C7, C8 and N9 is observed in a two-hybrid assay. R5G44 and R5G52 aptamers recognize neither the CNA fragments, nor NS5A-TP2. Only aptamers R5G42 and N9 recognize NS5A-TP2.
The inventors proceeded to further yeast two-hybrid binding assays between peptide aptamers R5G42 (SEQ ID 22), C2 (SEQ ID 23), C7 (SEQ ID 27), C8 (SEQ ID 28), N9 (SEQ ID 33), R5G44 and R5G52 with CNA constructs CNA1-CNA8 (FIG. 14A), CNA9-CNA11 (FIG. 14B) and NS5A-TP2 (SEQ ID 15) (FIG. 14C). The sensitivity of this yeast two-hybrid assay was higher than in the experiment reported above.

For assay [3], the target named is T2, CNA beta C-terminal fragment (Homo sapiens, UniProt P16298).
T2 construct: expressed in transfected cells; host or cells: yeast (MB210a transformed with library plasmid, mated with bait strain)
In words: Yeast two-hybrid assays of R5G42 mutants. Format: binding. The conditions noted are these: plasmids pSH18-34, pJK103, pRB18-40. On the procedure:
as §1, §2

The mark [4] stands for this setting: 4 days post-transfection, absence of RANKL.

Sequence of CNA gamma C-terminal fragment (P48454 386-512 limits assumed): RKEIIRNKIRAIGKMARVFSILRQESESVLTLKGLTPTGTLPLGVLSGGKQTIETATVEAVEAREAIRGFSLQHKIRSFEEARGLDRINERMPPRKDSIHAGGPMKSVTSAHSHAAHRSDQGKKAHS

B1: C2: R5G42 mutant having a one amino acid change (SEQ ID 23) (protein)
chain: MVKQIESKTAFQEALDAAGDKLVVVDFSATWCGPSAVTFAVCALGPCKMIKLFFHSLSEKYSNVIFLEVDVDDCQDVASECEVKCMPTFQFFKKGQKVGEFSGANKEKLEATINELV
modifications: Aptamer R5G42 mutant C2
In the case of B1, the yeast two-hybrid interaction entry in assay [1] and in assay [3] was “shown to interact” each time. Further, the osteoclast differentiation result in assay [2] (setting [4]) is recorded as “no osteoclasts fully differentiated were detectable”. In addition, the “recognition of NS5A-TP2” value with NS5A-TP2 is “only aptamers which recognized NS5A-TP2 were R5G42 and N9”.

B2: C7: R5G42 mutant having a one amino acid change (SEQ ID 27) (protein)
chain: MVKQIESKTAFQEALDAAGDKPVVVDFSATWCGPSAVTFAVCALGPCKMIKPFFHSLSEKYSNVIFLEVDVDDCQDVASECEVKCMPTFQFFKKGQKVGEFSGANKEKLEATINELV
modifications: Aptamer R5G42 mutant C7
On to B2, for which the yeast two-hybrid interaction entry in assay [1] and in assay [3] was “shown to interact” each time. In addition, in assay [2] (setting [4]), the osteoclast differentiation entry is “Some cells with the osteoclast phenotype can be observed”. The “recognition of NS5A-TP2” value with NS5A-TP2 was “only aptamers which recognized NS5A-TP2 were R5G42 and N9”.

B3: C8: R5G42 mutant having a one amino acid change (SEQ ID 28) (protein)
chain: MVKQIESKTAFQEALDAAGDKLVVVDFSATWCGPSAVTIAVCALGPCKMIKPFFHSLSEKYSNVIFLEVDVDDCQDVASECEVKCMPTFQFFKKGQKVGEFSGANKEKLEATINELV
modifications: Aptamer R5G42 mutant C8
Regarding B3, the yeast two-hybrid interaction entry in assay [1] and in assay [3] was “shown to interact” each time. Besides, in assay [2] (setting [4]), the osteoclast differentiation result was “no osteoclasts fully differentiated were detectable”. Further, the “recognition of NS5A-TP2” value with NS5A-TP2 was “only aptamers which recognized NS5A-TP2 were R5G42 and N9”.

B4: receptor activator of nuclear factor (NF)-κB ligand (protein, UniProt O14788 140-317, looked up)
Tumor necrosis factor ligand …: IRAEKAMVDGSWLDLAKRSKLEAQPFAHLTINATDIPSGSHKVSLSSWYHDRGWAKISNMTFSNGKLIVNQDGFYYLYANICFRHHETSGDLATEYLQLMVYVTKTSIKIPSSHTLMKGGSTKYWSGNSEFHFYSINVGGFFKLRSGEEISIEVSNPSLLDPDQDATYFGAFKVRDID
notes: TNF family cytokine, normal osteoclast differentiation factor
Take B4: the osteoclast differentiation entry in assay [2] (control conditions, 50 ng/ml RANKL) is “differentiated into osteoclasts”.

The record behind these values is patent publication US8440804B2, “Polypeptides having modulatory effects on cells” (Ecole Normale Superieure de Lyon, priority 2006, dated 2013).
